# Measured values from publication PMC3428924.
# Legend:
# [1] = molecular target: elongation factor 1B beta (eEF1Bβ) of C. fasciculata (C. fasciculata (endogenous in choanomastigotes)); assay: SEC
# [2] = molecular target: elongation factor 1B alpha (eEF1Bα) of C. fasciculata (C. fasciculata (endogenous in choanomastigotes)); assay: SEC
Substance,stoichiometry N [1],stoichiometry N [2]
elongation factor 1B alpha (eEF1Bα) of C. fasciculata (natural protein),1 α per β,
elongation factor 1B gamma (eEF1Bγ) of C. fasciculata (natural protein),2 γ per β,2 γ per α
